In patent publication US20080311134A1 (published 2008):

Target: T1, MUC16 polypeptide, endogenous, on OVCAR-3 cells (human, UniProt Q8WXI7 1-14507)
T1 construct: whole, on cells; Highly polymorphic repeat protein; also called CA125; O772P
Assay: flow cytometry on OVCAR-3 cells, 25-400 ng/mL, anti-human Fc secondary antibody
Method: Bound antibody was detected using a fluorescent anti-human Fc secondary antibody.
Antibodies were applied at 25, 50, 100, 200, and 400 ng/mL in PBS+1% FBS+2 mM EDTA. After this incubation, cells were washed and then incubated with phycoerythrein-labeled goat anti-human Fc secondary antibody (one hour on ice). Cells were then washed and analyzed by flow cytometry. […] Even the lowest antibody concentration tested (25 ng or approximately 1×10¹¹ antibodies) provides a molar excess of antibodies over binding sites. Therefore, the concentration at which binding is reduced (as detected by flow cytometry) reflect the affinity of the antibody for MUC16.

- binding result: binds
B1: A117C thio hu anti-MUC16 3A5 humanized variant (antibody, human IgG1, kappa, V domains shown)
VH: EVQLVESGGGLVQPGGSLRLSCAASGYSITNDYAWNWVRQAPGKGLEWVGYISYSGYTTYNPSLKSRFTISRDTSKNTLYLQMNSLRAEDTAVYYCARWTSGLDYWGQGTLVTVSS
VL: DIQMTQSPSSLSASVGDRVTITCKASDLIHNWLAWYQQKPGKAPKLLIYGATSLETGVPSRFSGSGSGTDFTLTISSLQPEDFATYYCQQYWTTPFTFGQGTKVEIKR
notes: Full-length IgG expressed in CHO cells; Kabat 114, Eu 118; also called thio hu anti-MUC16 HC A117C 3A5; A117C thio hu 3A5
